Reference: patent publication US20030108991

Target: T1, N-Succinyl-Ala-Ala-Pro-Phe-p-nitroanilide
T1 chain: AAPF

B1: soluble keratinase (Bacillus licheniformis PWD-1 keratinase) (protein)
chain: AQTVPYGIPLIKADKVQAQGFKGANVKVAVLDTGIQASHPDLNVVGGASFVAGEAYNTDGNGHGTHVAGTVAALDNTTGVLGVAPSVSLYAVKVLNSSGSGSYSGIVSGIEWATTNGMDVINMSLGGASGSTAMKQAVDNAYARGVVVVAAAGNSGSSGNTNTIGYPAKYDSVIAVGAVDSNSNRASFSSVGAELEVMAPGAGVYSTYPTNTYATLNGTSMVSPHVAGAAALILSKHPNLSASQVRNRLSSTATYLGSSFYYGKGLINVEAAAQ
In the case of B1, the Km is reported as 220 µM.
